The record followed here is patent publication CN117700537A.

The target in this test is 非洲马瘟病毒VP7重组蛋白 (AHSV VP7重组蛋白, 原核表达) (African horse sickness virus (非洲马瘟病毒)). Description: indirect ELISA, negative control on coated VP7 recombinant protein (0.5 μg/mL). On the technique in general: In an ELISA, binding on a coated surface is turned into a signal by an enzyme label.

With 阴性对照 (阴性抗体, 表2) (antibody), the OD450 worked out at 0.0655 OD450.
